Source: article PMC3046295 (Journal of autoimmunity, 2011)
Where two headings read alike, the source gives them in different places. Residues, ends and D or L forms follow the SMILES beside them. No end group written: not given here.

Key:
[1] = biological target: HLA-DR0403 (DRA1*0101/DRB1*0403), soluble recombinant (human); test: ELISA
DR0403 = DR0403 (Homo sapiens, UniProt P01903+P01911, A100R/A103E/A169T/F76Y/I96L/K127E/L162R/M171V/N62H/P40V/Q125Y/R42H/S133A/S149N/S66Y/V209L/W38E); test: 16-hour direct binding assay of biotinylated reference peptide, DR0403
HLA-DR0403 [2] = biological target: T1, HLA-DR0403 (Homo sapiens, UniProt P01903+P01911, A100R/A103E/A169T/F76Y/I96L/K127E/L162R/M171V/N62H/P40V/Q125Y/R42H/S133A/S149N/S66Y/V209L/W38E); test: Kinetic analysis; assay type: binding; conditions: pH 5.4, read-out: Kd 0403 (dissociation rate constant)
HLA-DR0401 [3] = biological target: T2, HLA-DR0401 (Homo sapiens, UniProt P01903+P01911, A100K/A169T/F76Y/I96L/K127E/L162R/M171V/N62H/P40V/Q125Y/R42H/S133A/S149N/S66Y/V115G/V209L/W38E); test: Kinetic analysis; assay type: binding; conditions: pH 5.4, read-out: Kd 0401 (dissociation rate constant)
HLA-DR0401 [4] = biological target: T2, HLA-DR0401; test: biochemical; assay type: binding
HLA-DR0403 [5] = biological target: T1, HLA-DR0403; test: biochemical; assay type: binding
HLA-DR0405 = HLA-DR0405 (Homo sapiens, UniProt P01903+P01911, A100R/A169T/D86S/F76Y/I96L/K127E/L162R/M171V/N62H/P40V/Q125Y/R42H/S133A/S149N/S66Y/V115G/V209L/W38E); test: Indirect; assay type: binding; conditions: read-out: IC50 (uM) 0405; pH 5.4
[6] = biological target: HLA-DR0403 (DRA1*0101/DRB1*0403), soluble recombinant (human); test: ELISA; remark: listed apart in the source
[7] = biological target: HLA-DR0401 (DRA1*0101/DRB1*0401), soluble recombinant (human); test: ELISA

Work on “biotinylated influenza hemagglutinin derived peptide HA306” yielded an EC50 [1] greater than 15000 nM.

In the case of NFIRMVISNPAAT [557I], the “ED50 to bind 0.05 µM DR0403” value (DR0403) is reported as 10 nM.

Molecule `CC[C@H](C)[C@H](NC(=O)[C@@H](NC(=O)[C@@H]1CCCN1C(=O)[C@H](C)NC(=O)[C@@H](N)C(C)C)C(C)C)C(=O)N[C@@H](CCCCN)C(=O)N[C@@H](C)C(=O)N[C@@H](CCCNC(=N)N)C(=O)N[C@@H](CCSC)C(=O)N[C@@H](CCSC)C(=O)N[C@@H](CCC(=O)O)C(=O)N[C@@H](Cc1ccc(O)cc1)C(=O)NCC(=O)N[C@H](C(=O)N[C@H](C(=O)N[C@@H](CCSC)C(=O)N[C@H](C(=O)N[C@@H](CO)C(=O)N[C@@H](Cc1ccc(O)cc1)C(=O)N[C@@H](CCC(N)=O)C(=O)O)C(C)C)[C@@H](C)O)[C@@H](C)O` [GAD65p67] (H-VAPVIKARMMEYGTTMVSYQ-OH) has a koff (HLA-DR0403 [2]) of 7.67e-05 s⁻¹, a koff (HLA-DR0401 [3]) of 0.000149 s⁻¹ and an IC50 (HLA-DR0401 [4]) of 640 nM. The IC50 (HLA-DR0403 [5]) was 1610 nM and the IC50 (HLA-DR0405) was greater than 10 µM.

`CC(C)C[C@H](NC(=O)[C@H](CC(C)C)NC(=O)[C@@H]1CCCN1C(=O)[C@H](CC(=O)O)NC(=O)[C@H](Cc1ccccc1)NC(=O)[C@H](C)NC(=O)CNC(=O)[C@H](Cc1ccc(O)cc1)NC(=O)[C@@H](NC(=O)[C@@H](NC(=O)[C@@H](NC(=O)CNC(=O)[C@H](C)NC(=O)[C@@H](NC(=O)[C@H](C)NC(=O)[C@H](CO)NC(=O)[C@@H](NC(=O)[C@H](CC(C)C)NC(=O)[C@H](Cc1ccccc1)NC(=O)[C@@H]1CCCN1)C(C)C)[C@@H](C)O)[C@@H](C)O)[C@@H](C)O)C(C)C)C(=O)O` [GAD65p42] (H-PFLVSATAGTTVYGAFDPLL-OH) was tested, and the koff (HLA-DR0403 [2]) was 2.02e-05 s⁻¹, the koff (HLA-DR0401 [3]) was 5.42e-05 s⁻¹ and the IC50 (HLA-DR0401 [4]) was 2070 nM. It also gave an IC50 (HLA-DR0403 [5]) of 1270 nM and an IC50 (HLA-DR0405) greater than 10 µM.

PFLVSATAGTTVYGAFDPLL (not fully specified) [biotinylated GAD65p42] was tested, and the koff [6] was 2.02e-05 s⁻¹, the t1/2 [6] was 9.6 min and the koff [7] was 5.42e-05 s⁻¹. The t1/2 [7] was 3.6 min.

Molecule VAPVIKARMMEYGTTMVSYQ (not fully specified) [biotinylated GAD65p67] has a koff [6] of 7.67e-05 s⁻¹, a t1/2 [6] of 151 min and a koff [7] of 0.000149 s⁻¹. The t1/2 [7] was 77.4 min.

Molecule YAIKTGHPRYFNQLSTGLDM [GAD65p22] has an IC50 [6] of 10000 nM.

YAMMIARFKMFPEVKEKGMA [GAD65p32] was tested, and the IC50 [6] was 10000 nM.

NFIRMVISNPAAT (not fully specified) [biotinylated GAD65-557I] gave an EC50 [6] of 10 nM.

Work on YDLSYDTGDKALQCGRHVDV [GAD65p55] yielded an IC50 [7] of 10000 nM.

CFWYIPPSLRTLEDNEERMS [GAD65p64] gave an IC50 [6] of 1000 nM.

For GAGSLQPLALEGSLQKRGIV [preproinsulin p10], the IC50 [7] was 8750 nM.

Work on RGIVEQCCTSICSLYQLENY [preproinsulin p12] yielded an IC50 [6] of 1890 nM and an IC50 [7] of 220 nM.

For TSICSLYQLENYCN [preproinsulin p13], the IC50 [6] was 470 nM.

With CACDQKPCSCSKVDVNYAFL [GAD65p10] the IC50 [6] was 3550 nM.
